Assays:
Assay in all cases: two-hybrid library CCNG1;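 further: natural log of median RNA to DNA barcode read ratio; higher means stronger binding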
P12bH1 = target: T1, P12bH1
T1 chain: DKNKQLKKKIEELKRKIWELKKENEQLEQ

P1bH1 = target: T2, P1bH1
T2 chain: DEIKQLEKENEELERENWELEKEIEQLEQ

P2bH1 = target: T3, P2bH1
T3 chain: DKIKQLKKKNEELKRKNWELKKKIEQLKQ

P3bH1 = target: T4, P3bH1
T4 chain: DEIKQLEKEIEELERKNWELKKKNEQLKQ

P4bH1 = target: T5, P4bH1
T5 chain: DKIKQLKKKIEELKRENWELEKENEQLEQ

P5bH1 = target: T6, P5bH1
T6 chain: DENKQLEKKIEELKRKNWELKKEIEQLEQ

P6bH1 = target: T7, P6bH1
T7 chain: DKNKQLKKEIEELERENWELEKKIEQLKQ

P7bH1 = target: T8, P7bH1
T8 chain: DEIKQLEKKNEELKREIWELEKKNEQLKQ

P8bH1 = target: T9, P8bH1
T9 chain: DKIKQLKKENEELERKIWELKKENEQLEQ

P9bH1 = target: T10, P9bH1
T10 chain: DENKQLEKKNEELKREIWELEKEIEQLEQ

interaction score (P12bH1): -1.4 | interaction score (P1bH1): -0.0192 | interaction score (P2bH1): -1.01 | interaction score (P3bH1): -1.43 | interaction score (P4bH1): -0.999 | interaction score (P5bH1): -0.826 | interaction score (P6bH1): -0.251 | interaction score (P7bH1): -0.861 | interaction score (P8bH1): -0.578 | interaction score (P9bH1): -0.294
Binder: DKNKQLKKKIEELKRKIWELKKENEQLEQ [P12bH1]

— paper PMC10397247
